Measured values from patent US20170114140A1 (Amgen, published 2017).
Changes are numbered by the printed parent chain.

B1: 2.23.1 (antibody, V domains shown)
VH: QVQLVESGGGLVKPGGSLRLSCAASGFTFSDYYMSWIRQAPGKGLEWVSYISSSGSTIYYADSVKGRFTISRDNAKNSLYLQMNSLRAEDTAVYYCARDRTYYFGSGSYEGMDVWGQGTTVTVSS
VL: EILMTQSPATLSVSPGERATLSCRASQSVYSNLAWYQQKPGQAPRLLISGASTRATGIPARFSGSGSGTEFTLTISSLQSEDFAVYYCQQYYNWPWTFGQGTKVEIK
B2: 3.1545.1 (antibody, V domains shown)
VH: EVQLVESGGGSVQPGGSLRLSCAASGFTFSSYSMNWVRQAPGKGLEWVSIISSRSSIIHYADSVKGRFTISRDNAKNSLYLQMNSLRDEDTAVYYCARPKVGGGMDVWGQGTTVTVSS
VL: DIQMTQSPSSLSASVGDRVTITCRASQGISNYLAWYQQKPGKFPELLIYAASTLQSGVPSRFSGSGSGTDFTLTISSLQPEDVATYYCQKYNRAPFTFGPGTKVDIK
B3: 2.46.1 (antibody, V domains shown)
VH: QVQLVQSGAEVKKPGASVKVSCKASGNTFTGYGISWVRQAPGQGLEWMGWISAYNGNTNYAQNLQGRVTMTTDTSTSTAYMELRSLRSDDTAVYYCARRDYDILTGYYNGFDPWGQGTLVTVSS
VL: DIQMTQSPSSLSASVGDRVTITCRASQGIRNDLGWYQQKPGKAPKRLIYAASSLQSGVPSRFSGSGSGTEFTLTISSLQPEDFATYYCLQHKSYPLTFGGGTKVEIK
B4: 2.98.1 (antibody, V domains shown)
VH: B3 VH with N27Y, F29L, G31R, N63K
VL: B3 VL
B5: 2.133.1 (antibody, V domains shown)
VH: QVQLQESGPGLVKPSETLSLTCTVSGGSISNYYWNWIRQSPGKGLEWIGDIYYSGSTNYNPSLKSRVTISVDTSKNQFSLKLSSVTTADTAVYYCARDGELANYYGSGSYQFYYYYGMDVWGQGTTVTVSS
VL: B3 VL with Q3L, K92N, Y94N, L96F, G100P, E105D
B6: 2.225.1 (antibody, V domains shown)
VH: B3 VH with A9V, N27Y, F29L, G31R, N63K
VL: B3 VL
B7: 2.67.1 (antibody, V domains shown)
VH: B3 VH with N27Y, F29L, G31R, N63K
VL: B3 VL
B8: 1.185.1 (antibody, V domains shown)
VH: QVQLVESGGGVVQPGRSLRLSCAASGINFSSYGMHWVRQAPGKGLEWVAVIWYDGSNKHYADSVKGRFTISRDNSKNTLYLQMNSLRAEDTAVYYCARDTGVYWGQGTLVTVSS
VL: not shown
B9: 4.16.1 (antibody, IgG2, V domains shown)
VH: QVQLVQSGAEVKKPGASVKVSCKASGYTLTSYGISWVRQAPGQGLEWMGWISAYSGNTKYAQKFQGRVTMTTDTSTSTAYMELRSLRSDDTAVYYCARRQLALDYWGQGTLVTVSS
VL: EIVMTQSPATLSVSPGERATLSCRASQSISSNLAWYQQKPGQAPRLLIYGASTRATGIPARFSDNGSGTEFTLTISSLQSEDFAVYFCQQYDTWPLTFGGGTKVEIK
B10: 3.1404.1 (antibody, IgG2, V domains shown)
VH: B9 VH with L29F, S31R, A53T, K59N, F64L, A102Y, L103F
VL: B9 VL with I29V, Y36F, L46P, G50D, I58V, D64G, N65S, E70D, F87Y, T93N
B11: 4.393.1 (antibody, V domains shown)
VH: B9 VH with L29F, S55N, F64L, A79V, R99K, A102V, L103F
VL: B9 VL with S31T, N32S, A51T, D64G, N65S, T93I
B12: 3.381.1 (antibody, IgG2, V domains shown)
VH: B9 VH with L29F, S31R, K59N, F64L, A102Y, L103F
VL: EIVMTQSPATLSVSPGERVTLSCRASQSVSSNLAWFQQKPGQAPRPLIYDASTRAAGIPARFSGSGSGTDFTLTISSLQSEDFAVYYCQQYDNWPLTFGGGTKVEIK
B13: 4.357.1 (antibody, V domains shown)
VH: B9 VH with A53T, S55K, K59N, F64L, R99K, A102V, L103F
VL: B9 VL with N32S, D64G, N65S, D82N, F87Y, T93N
B14: IL-17RB.Fc (extracellular domain of human IL-17RB fused to the Fc region of human IgG) (Fc fusion, UniProt Q9NRM6 18-292, looked up, not shown: a dimerising Fc or GST)
chain: REPTVQCGSETGPSPEWMLQHDLIPGDLRDLRVEPVTTSVATGDYSILMNVSWVLRADASIRLLKATKICVTGKSNFQSYSCVRCNYTEAFQTQTRPSGGKWTFSYIGFPVELNTVYFIGAHNIPNANMNEDGPSMSVNFTSPGCLDHIMKYKKKCVKAGSLWDPNITACKKNEETVEVNFTTTPLGNRYMALIQHSTIIGFSQVFEPHQKKQTRASVVIPVTGDSEGATVQLTPYFPTCGSDCIRHKGTVVLCPQTGVPFPLDNNKSKPGGWLP
notes: extracellular domain; also called HuIL-17RB: Fc

target: T1, human IL-17RA on cells (human PBMC; human foreskin fibroblasts) (human, UniProt Q96F46 33-866); assay: cell-based or functional assay

Binder	% Inhib. of IL-5 production (TSLP treated human PBMC + IL-2 + IL-25), Expt. 1 [%]	% Inhib. of IL-5 production (TSLP treated human PBMC + IL-2 + IL-25), Expt. 3 [%]	% Inhib. of IL-5 production (TSLP treated human PBMC + IL-2 + IL-25), Expt. 2 [%]
B1	0	0	–
B2	0	0	43
B3	0	0	6
B4	0	0	79
B5	0	28	16
B6	0	0	–
B7	0	3	13
B8	0	9	41
B9	–	100	77
B10	–	69	–
B11	28	45	72
B12	69	74	82
B13	0	11	–

target: T2, IL-17RA.HIS (extracellular domain of human IL-17RA fused to a polyhistidine tag) (human, UniProt Q96F46 33-320); assay: co-immunoprecipitation on Protein G beads, Western blot with anti-IL-17RA
T2 construct: extracellular domain

Binder	binding result
B14	binds

target: T1, human IL-17RA on cells (human PBMC; …); assay: cell-based or functional assay; remark: another data set of the same source

Binder	% Inhibition of IL-5 production (TSLP treated human PBMC + IL-2 + IL-25), inhibitor 10 micrograms/mL [%]
B9	86
B12	100
